This note sets out measurements from the RNAGym collection of RNA variant scans (doi:10.7554/elife.80360).

The chains are these.
B1: Hairpin Ribozyme (parent)
chain: GUCCUCUUUCACGUGCGCGUGAAAGAGAGAAGUGAACCAGAGAAACACACGUUGUGGUAUAUUACCUGGUA

The series covers variants of B1. The experiment in a line: self-cleavage, relative activity (ratio to wild type); higher = more cleavage; co-transcriptional.
Consider GUCCUCUUUCACGUGCGCGUGAAAGAGAGAAGUGAACCAGUGAAACACACGUUGUGGUAAAUUACCUGGUA [A41U U60A], for which the self-cleavage was determined as 1.37. Consider GUCCUCUUUCACGUGCGCGUGAAAGAGAGAAGUGAACCAGAGAAACACACGUUGUGUUAUAUUACCUGGUC [G57U A71C], for which the self-cleavage was 0.738. In the case of GUCCUGUUUCAGGUGCGCGUGAAAGAGAGAAGUGAACCAGAGAAACACACGUUGUGGUAUAUUACCUGGUA [C6G C12G] it was 0.294; in that of GUCCUCUUUCACGUGCGCGUUAAAGAGAGAAGUGAACCAGAGAAACACACGUUGUGGUAUAUUGCCUGGUA [G21U A64G], 0.573; in that of GUCCUCUUUCACGUGCGCCUGAAAGAUAGAAGUGAACCAGAGAAACACACGUUGUGGUAUAUUACCUGGUA [G19C G27U], 0.27. The same measure for GUCCUCUUUGACGUGCGCGUGAAAGAGAGAAGUGAACCAGAGAAACACACGUUGUUGUAUAUUACCUGGUA [C10G G56U]: 0.109; for GUCCUGUUUCACGUGCGCGUGAAAGAGAGAAGUGAACCUGAGAAACACACGUUGUGGUAUAUUACCUGGUA [C6G A39U]: 0.164. In the case of GUCCUCUUUCAUGUGCGCGUGAAUGAGAGAAGUGAACCAGAGAAACACACGUUGUGGUAUAUUACCUGGUA [C12U A24U] it was 0.802; in that of GUCCUCUUUCACGUGCGCGUGAAAGAGAGAAGUGGACAAGAGAAACACACGUUGUGGUAUAUUACCUGGUA [A35G C38A], 0.162; in that of GUCCACUUUCACGUGCGCGUGAACGAGAGAAGUGAACCAGAGAAACACACGUUGUGGUAUAUUACCUGGUA [U5A A24C], 0.314. Consider GUCAUCUUUCACGUGCGCGUGAAAGAGAGAAGUGACCCAGAGAAACACACGUUGUGGUAUAUUACCUGGUA [C4A A36C], for which the self-cleavage worked out at 0.138. In the case of GUCAUCUUUCACGUGCGCGUGAAAGAGAGAAGUGAACCAGAGAAACACACGUUGUGGUAUAUUACAUGGUA [C4A C66A] it was 0.146; in that of GUCCUCUUUCACGUGCGCGUGAAAGAGAGAAGUGAACCAUAGAAACACACGUUGUAGUAUAUUACCUGGUA [G40U G56A], 0.174; in that of GUCGGCUUUCACGUGCGCGUGAAAGAGAGAAGUGAACCAGAGAAACACACGUUGUGGUAUAUUACCUGGUA [C4G U5G], 0.0498. The same measure for GUCCUCUUUCACGUGCGCGUGAAAGAGAGAAGUGAACCAGAGAAACACACGUUGUGGUAUAUUACCUAGUG [G68A A71G]: 0.174; for GUCCUCUUUCACGUGCGCGUCAAAGAGAGAAGUGAACCAGAGAAACACACGUUGUGGUAUAUUACCAGGUA [G21C U67A]: 0.212. Regarding GGCCUCUUUCACGUGCGCGUGAAAGAGAGAAGUGAACCAGAGAAACACACGUUGUGGUAUAUUACCUGGCA [U2G U70C], the self-cleavage turned out to be 0.12. Consider GUCCUAUUUCACGUGCGCUUGAAAGAGAGAAGUGAACCAGAGAAACACACGUUGUGGUAUAUUACCUGGUA [C6A G19U], for which the self-cleavage amounted to 0.505. With GUCCGCUUUCACGUGCGCGUGAAAGAGAGAAGUGACCCAGAGAAACACACGUUGUGGUAUAUUACCUGGUA [U5G A36C], the self-cleavage worked out at 0.38. In the case of GUCCUCUUUCACGUGCGCGUGAAAGAGAGAAGUGAACCAGAGAAUCACACGUUGUUGUAUAUUACCUGGUA [A45U G56U] it was 0.208; in that of GUCCUCUUUCACGUGCGCGUGACAGAGAGAAGUGAACCAGAGAAACACACGUUGUGGUAUAUUACCGGGUA [A23C U67G], 0.27. The same measure for GUCCUCUUUCACGUGCGCGUGAAAGAGAGAAUUGAACCAGAGAAACACACGUUGUGGUAUAUCACCUGGUA [G32U U63C]: 0.268; for GUCCUCUUUCACUUGCGCGUGAAGGAGAGAAGUGAACCAGAGAAACACACGUUGUGGUAUAUUACCUGGUA [G13U A24G]: 0.681. In the case of GUCCUCUUUCACGUGCGCGUGAAAGAGAGAAGUGAUCCAUAGAAACACACGUUGUGGUAUAUUACCUGGUA [A36U G40U] it was 0.126; in that of GUCCUCUUUCACGUGCGCUUGAAAGAGAGAAGUGAACCAGAGAAAGACACGUUGUGGUAUAUUACCUGGUA [G19U C46G], 0.157. With GUCCUCUUUCACGUGCGCGCGAAAGAGAGAAGUGAACCGGAGAAACACACGUUGUGGUAUAUUACCUGGUA [U20C A39G], the self-cleavage was determined as 0.311. With GUCCUCUUUCACGUGCGCGUGCGAGAGAGAAGUGAACCAGAGAAACACACGUUGUGGUAUAUUACCUGGUA [A22C A23G], the self-cleavage was 0.779. Consider GUGCUCUUUCACGUGCGCGUGAACGAGAGAAGUGAACCAGAGAAACACACGUUGUGGUAUAUUACCUGGUA [C3G A24C], for which the self-cleavage is 0.238. Turning to GUCCUCUUUCACGUGCGCGUGAAAGAGAGAACUGAACCAGAGAAACACACGUUGUGGUAUACUACCUGGUA [G32C U62C], the self-cleavage turned out to be 0.2. The same measure for GUCCUCUUUCACGUGCGCGUGAAAGAGAGAAGUGAACUAGAGAAACACACGUUGUGGAAUAUUACCUGGUA [C38U U58A]: 0.333; for GUCCCCUUUCACGUGCGCGUGAAAGAGAGAAGUGAACCAGAGAAACACAUGUUGUGGUAUAUUACCUGGUA [U5C C50U]: 0.17. Regarding AUCCUCUUUCACGUGCGCGUGAAAGAGAGAAGUGAACGAGAGAAACACACGUUGUGGUAUAUUACCUGGUA [G1A C38G], the self-cleavage amounted to 0.157. For the variant GUCCUCUUUCACGUGCGCUUGAAAGAGAGAAGUGAACCAGACAAACACACGUUGUGGUAUAUUACCUGGUA [G19U G42C], the self-cleavage was determined as 0.492. On to GUCCUCUUUCGCGUGCGCGUGAAAGAGAGAAGUGAACCAGAGAAGCACACGUUGUGGUAUAUUACCUGGUA [A11G A45G], for which the self-cleavage was 0.271.

Consider GUCCUCUUUCACGUGCGCGUGAAAGAGAGAAGUGAACCAGUGAAACACACGUUGUGGUAUACUACCUGGUA [A41U U62C], for which the self-cleavage is 0.711. In the case of GUCCUCUGUCACGUGCGCGUGAAAGAGAGAAAUGAACCAGAGAAACACACGUUGUGGUAUAUUACCUGGUA [U8G G32A], the self-cleavage is 0.0907. The same measure for GUCCUCUGUCACCUGCGCGUGAAAGAGAGAAGUGAACCAGAGAAACACACGUUGUGGUAUAUUACCUGGUA [U8G G13C]: 0.519.

On to GUCCUCUUACACGUGCGCGUGAAAGAGAGAAGUGAACCAGAGAAACACACGUUGUGGUAUAUUACCAGGUA [U9A U67A], for which the self-cleavage is 0.147.
